Experimental data taken from PMC8336515, “OTUD7B Deubiquitinates LSD1 to Govern Its Binding Partner Specificity, Homeostasis, and Breast Cancer Metastasis” (Advanced Science, 2021).

Target: recombinant LSD1 (UniProt O60341 1-852)
Assay: pull-down; recombinant proteins in vitro (Figure S1F); GST fusion on glutathione-sepharose beads, NETN buffer, 4 °C for 2 h
Conditions: both partners purified

B1: recombinant OTUD7B (enzyme)
chain: MTLDMDAVLSDFVRSTGAEPGLARDLLEGKNWDVNAALSDFEQLRQVHAGNLPPSFSEGSGGSRTPEKGFSDREPTRPPRPILQRQDDIVQEKRLSRGISHASSSIVSLARSHVSSNGGGGGSNEHPLEMPICAFQLPDLTVYNEDFRSFIERDLIEQSMLVALEQAGRLNWWVSVDPTSQRLLPLATTGDGNCLLHAASLGMWGFHDRDLMLRKALYALMEKGVEKEALKRRWRWQQTQQNKESGLVYTEDEWQKEWNELIKLASSEPRMHLGTNGANCGGVESSEEPVYESLEEFHVFVLAHVLRRPIVVVADTMLRDSGGEAFAPIPFGGIYLPLEVPASQCHRSPLVLAYDQAHFSALVSMEQKENTKEQAVIPLTDSEYKLLPLHFAVDPGKGWEWGKDDSDNVRLASVILSLEVKLHLLHSYMNVKWIPLSSDAQAPLAQPESPTASAGDEPRSTPESGDSDKESVGSSSTSNEGGRRKEKSKRDREKDKKRADSVANKLGSFGKTLGSKLKKNMGGLMHSKGSKPGGVGTGLGGSSGTETLEKKKKNSLKSWKGGKEEAAGDGPVSEKPPAESVGNGGSKYSQEVMQSLSILRTAMQGEGKFIFVGTLKMGHRHQYQEEMIQRYLSDAEERFLAEQKQKEAERKIMNGGIGGGPPPAKKPEPDAREEQPTGPPAESRAMAFSTGYPGDFTIPRPSGGGVHCQEPRRQLAGGPCVGGLPPYATFPRQCPPGRPYPHQDSIPSLEPGSHSKDGLHRGALLPPPYRVADSYSNGYREPPEPDGWAGGLRGLPPTQTKCKQPNCSFYGHPETNNFCSCCYREELRRREREPDGELLVHRF
notes: OTUD7B; cDNA in pGEX4T1 (GST) or pET21b (His); also called GST-OTUD7B; His-OTUD7B; source: recombinant; GST fusions expressed in BL21 and purified by glutathione-sepharose beads; not shown: GST or His (GST-OTUD7B and His-OTUD7B were both cloned)
binding result: binds
